Experimental data: patent publication US20230115785, “ANALYTE DETECTION” (University of Leeds, published 2023)

Tests used:
Conditions in all cases: chain copies: 5 (pentamer, stated)
[1] = target: T1, C-reactive protein (CRP, pentamer) (Homo sapiens, UniProt P02741 P02741:19-224); assay: SPR; amine-anchored extended aptamer; 10 mM TrisAc, 10 mM MgAc, 2 mM CaCl2, 1 mM EDTA; faster kinetics than aptamer 2
T1 sequence: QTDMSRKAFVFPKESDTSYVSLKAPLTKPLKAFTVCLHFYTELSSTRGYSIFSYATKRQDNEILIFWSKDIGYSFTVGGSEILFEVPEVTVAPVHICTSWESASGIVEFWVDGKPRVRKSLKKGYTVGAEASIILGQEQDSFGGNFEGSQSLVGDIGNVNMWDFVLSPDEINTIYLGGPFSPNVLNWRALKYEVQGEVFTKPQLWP
Procedure: (§1) Aptamer-protein binding studies were carried out via an ESPRIT SPR instrument from Metrohm Autolab B.V (Utrecht, The Netherlands). For this, the end-modified aptamers attached with an amine group were anchored onto the gold SPR surface functionalized with a self-assembled monolayer (SAM) of C11PEG6COOH via EDC (1-ethyl-3-(3-dimethylaminopropyl) carbodiimide) NHS (N-hydroxysuccinimide) coupling chemistry. The gold SPR surface from XanTec bioanalytics was cleaned by sonication twice in acetone for 10 minutes and then immersed in an ethanolic 1 mM SAM solution containing 5% acetic acid and allowed to stand at room temperature for 48 hours. Following the incubation, the surface was rinsed with 100% ethanol, quickly dried with nitrogen and was mounted on the SPR system. To attach the DNA aptamers to the gold surface, the COOH-terminated SAM surface was activated with 50 mM EDC and 200 mM NHS in 100 mM MES buffer at pH5.5 for around 15 min. The surface was washed with the MES buffer, followed by a 30-minute incubation with 5 μM of DNA aptamer in 10 mM sodium acetate buffer at pH5.5. Any remaining activated COOH sites were quenched by exposing the surface to 100 mM ethanolamine in water for around 10 min. […] The binding was measured as the change in resonance angle.

[2] = target: T1, C-reactive protein (CRP, pentamer); assay: nanopipette translocation; carrier 9 nM, CRP 90 nM; no single peaks
Procedure: For the translocation experiments the nanopipettes with the working electrode were filled with the translocation buffer (0.1 M KCl with 10 mM TrisAc, 10 mM MgAc, 2 mM CaCl₂) and 1 mM EDTA) containing the DNA origami and analyte where applicable at a final concentration of 500 pM. The Mg is required to maintain the stability of the DNA origami, and the Ca to match the buffer conditions used to select the DNA aptamers employed as binding moieties. The grounded counter electrode was immersed in a 0.1 M KCl solution completing the circuit. […] Measurements were recorded using the Axopatch 700b amplifier, and the data were acquired at a rate of 100 kHz and 20 kHz low pass filtered. […]
To investigate the specificity of our sensing system, and in particular of the carriers to the CRP target, a random DNA sequence was selected to act as a non-specific aptamer and the translocation ion current was measured for carrier concentration of 9 nM and CRP concentration of 90 nM, i.e. the highest concentration reported in FIG. 6. A single distribution of peak amplitudes and dwell times with averages of 69±5 pA and […], respectively, were found, consistent with the values measured with unoccupied carriers.

[3] = target: T1, C-reactive protein (CRP, pentamer); assay: SPR; amine-anchored extended aptamer; slower kinetics than aptamer 1; similar carrier sensing results (p217)
Procedure: as §1

B1: hCRP aptamer 1 (ssDNA)
DNA: AAGCCTTTATTTCAACGGCAGGAAGACAAACACGATGGGGGGGTATGATTTGATGTGGTTGTTGCATGATCGTGGTCTGTGGTGCTGT
modifications: 5'-NH2
binding result [1]: binds

B2: Nonspecific random aptamer (ssDNA)
DNA: CTGAACAAGAAAAATAGCAGAACTTACGAGCCAGGGGAAACAGTAAGGCCTAATTAGGTAAAGGAGTAAGTGCTCGAACGCTTCAGA
modifications: 5'-NH2
binding result [2]: no binding

B3: hCRP aptamer 2 (ssDNA)
DNA: CGAAGGGGATTCGAGGGGTGATTGCGTGCTCCATTTGGTGTTTTTTTTTTTTGCAAGGATAAAAATTT
modifications: 3'-NH2
binding result [3]: binds
